From patent US20230174596A1 (published 2023)

T1: hVEGF-A (8-109) (human, UniProt P15692 214-315)
T1 construct: residue numbers count on mature VEGF-A; dimer
T1 sequence (looked up): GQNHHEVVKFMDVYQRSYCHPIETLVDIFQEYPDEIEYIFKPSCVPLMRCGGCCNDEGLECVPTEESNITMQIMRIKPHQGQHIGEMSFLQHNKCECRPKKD


Key:
[1] = target: LRP6 E1E2 protein (human) (UniProt O75581); assay: spot phage ELISA
[2] = target: T1, hVEGF-A (8-109); assay: spot phage ELISA

Chain of LRP6 E1E2 protein (human) (O75581 20-630 limits assumed): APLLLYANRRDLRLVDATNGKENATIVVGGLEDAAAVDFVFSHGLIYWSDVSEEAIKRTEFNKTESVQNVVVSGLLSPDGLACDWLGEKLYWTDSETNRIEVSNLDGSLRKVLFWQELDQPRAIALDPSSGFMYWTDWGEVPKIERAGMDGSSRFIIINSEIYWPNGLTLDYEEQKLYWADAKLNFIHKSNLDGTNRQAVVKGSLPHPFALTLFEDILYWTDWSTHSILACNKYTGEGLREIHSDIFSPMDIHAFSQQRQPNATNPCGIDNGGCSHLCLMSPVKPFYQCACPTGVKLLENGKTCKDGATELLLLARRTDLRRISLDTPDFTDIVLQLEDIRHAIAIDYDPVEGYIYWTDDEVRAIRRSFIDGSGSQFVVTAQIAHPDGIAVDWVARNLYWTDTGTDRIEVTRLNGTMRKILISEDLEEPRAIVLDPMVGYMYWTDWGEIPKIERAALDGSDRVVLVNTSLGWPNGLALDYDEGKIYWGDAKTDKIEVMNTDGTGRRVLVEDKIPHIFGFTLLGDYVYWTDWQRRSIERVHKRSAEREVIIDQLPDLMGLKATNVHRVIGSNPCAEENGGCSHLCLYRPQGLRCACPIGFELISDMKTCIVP

Binder | ELISA [2] | S/N [2] | binding result [2] | further results
GCMNHVKARRCKQDSDCLAGCVCGPNGFCG (designed binder) [LRP6_CKP3] | – | – | – | ELISA [1]: 2.93; S/N [1]: 40.2
GCRSNRIRCKQDSDCLAGCVCYGHGDCG (designed binder) [LRP6_CKP11] | – | – | – | ELISA [1]: 2.65; S/N [1]: 36.8
GCVNKIKGCKQDSDCLAGCVCGVEGRCG (designed binder) [LRP6_CKP5] | – | – | – | ELISA [1]: 3.04; S/N [1]: 35.7
GCQDPTVNWAVYCKQDSDCLAGCVCQFYQSCG (designed binder) [VEGF_CKP7.17] | 0.8 | 13.4 | – | –
GCQDPTLNWATYCKQDSDCLAGCVCQMYQSCG (designed binder) [VEGF_CKP7.43] | 0.5 | 6.3 | – | –
GCQDPTFNWAEYCKQDSDCLAGCVCQMYQSCG (designed binder) [VEGF_CKP7.35] | 0.6 | 10.6 | – | –
GCQDPTFNWAEYCKQDSDCLAGCVCQLYQSCG (designed binder) [VEGF_CKP7.19] | 0.6 | 11.1 | – | –
GCNIMLPFWGCGPDLQCLAGCVCQYYQSCG (designed binder) [VEGF_CKP9.54.59] | 2.3 | 35.4 | – | –
GCQDPKLNWAVYCKQDSDCLAGCVCQLFNSCG (designed binder) [VEGF_CKP7.88] | 0.5 | 7.7 | – | –
GCRTNRVKGGCKQDSDCLAGCVCGPNGFCG (designed binder) [LRP6_CKP1] | – | – | – | ELISA [1]: 3.23; S/N [1]: 45.5
GCNIMLPFWGCGWSMDCLAGCVCQYYQSCG (designed binder) [VEGF_CKP9.54.76] | 2.7 | 42.2 | – | –
GCVNRVRGCKQDSDCLAGCVCSGGRDCG (designed binder) [LRP6_CKP2] | – | – | – | ELISA [1]: 3.41; S/N [1]: 41.6
GCRSNKLREARGCKQDSDCLAGCVCGSRQDCG (designed binder) [LRP6_CKP12] | – | – | – | ELISA [1]: 0.6; S/N [1]: 6.78
GCQDPSLNWADYCKQDSDCLAGCVCQMHQSCG (designed binder) [VEGF_CKP7.50] | 0.8 | 14.3 | – | –
GCDDPSFDWSVYCKQDSDCLAGCVCRMYDSCG (designed binder) [VEGF_CKP7.2] | 1.2 | 21.5 | – | –
GCLDPSFNWSLYCKQDSDCLAGCVCQMYDSCG (designed binder) [VEGF_CKP7.57] | 1 | 17.4 | – | –
GCDVMQPYWGCEMDFDCLAGCICHWYNSCGFS (designed binder) [9.63-4] | – | – | binds | –
GCDVMQPYWGCEMDFDCLAGCICHWYNSCGSR (designed binder) [9.63.44-4] | – | – | binds | –
GCDVMQPYWGCEMDFDCLAGCVCHWYNSCGGI (designed binder) [9.63.44-10-A] | – | – | binds | –

Binder | ELISA [2] | S/N [2] | binding result [2] | further results
GCDVMQPYWGCEMDFDCLAGCICHWYNSCGTS (designed binder) [9.63.44-8] | – | – | binds | –
GCDVMQPYWGCEMDFDCLAGCICHWYNSCGQV (designed binder) [9.63-20] | – | – | binds | –
GCDVMQPYWGCEMDFDCLAGCICHWYNSCGSR (designed binder) [9.63-25] | – | – | binds | –
GCDVMQPYWGCEMDFDCLAGCICHWYNSCGYA (designed binder) [9.63-22] | – | – | binds | –
GCDVMQPYWGCEMDFDCLAGCICHWYNSCGLQ (designed binder) [9.63-79] | – | – | binds | –
GCDVMQPYWGCEMDFDCLVGCVCHWYNSCGDE (designed binder) [9.63.44-10] | – | – | binds | –
GCDVMQPYWGCEMDFDCLAGCVCHWYNSCGQF (designed binder) [9.63.44-13] | – | – | binds | –
GCDVMQPYWGCEMDFDCLAGCICHWYNSCGFS (designed binder) [9.63.44-1] | – | – | binds | –
GCDVMQPYWGCEMDFDCLAGCVCHWYNSCGGI (designed binder) [9.63.44-7] | – | – | binds | –
GCDVMQPYWGCEMDFDCLAGCVCHWYNSCGPL (designed binder) [9.63-70] | – | – | binds | –
GCDVMQPYWGCEMDFDCLAGCVCHWYNSCGGI (designed binder) [9.63-67] | – | – | binds | –
GCDVMQPYWGCEMDFDCLAGCICHWYNSCGYA (designed binder) [9.63.44-3] | – | – | binds | –
GCDVMQPYWGCEMDFDCLAGCICHWYNSCGQV (designed binder) [9.63.44-2] | – | – | binds | –
GCDVMQPYWGCEMDFDCLAGCICHWYNSCGTS (designed binder) [9.63-72] | – | – | binds | –
GCDVMQPYWGCEMDFDCLAGCVCHWYNSCGPL (designed binder) [9.63.44-12] | – | – | binds | –
GCDVMQPYWGCEMDFDCLAGCICHWYNSCGLQ (designed binder) [9.63.44-9] | – | – | binds | –
GCHMMYDYCKQDSDCLAGCVCEMYDACG (designed binder) [VEGF_CKP3] | 3.1 | 42.9 | – | –
GCRSGNTIRKRECKQDSDCLAGCVCGGPGGCG (designed binder) [LRP6_CKP9] | – | – | – | ELISA [1]: 2.97; S/N [1]: 37.6
GCGETVFEQFLWCKQDSDCLAGCVCGPNGFCG (designed binder) [VEGF_CKP2] | 3.2 | 48.1 | – | –

Binder | ELISA [2] | S/N [2] | binding result [2] | further results
GCRGNIIKCKQDSDCLAGCVCNESRGCG (designed binder) [LRP6_CKP8] | – | – | – | ELISA [1]: 3.23; S/N [1]: 37.6
GCVSNRVNKGCKQDSDCLAGCVCGPNGFCG (designed binder) [LRP6_CKP7] | – | – | – | ELISA [1]: 3.3; S/N [1]: 29
GCLDPTVNWALFCKQDSDCLAGCVCQHYKTCG (designed binder) [VEGF_CKP7.81] | 1.1 | 18.6 | – | –
GCNIMLPFWGCGYDLQCLAGCVCQYYQSCG (designed binder) [VEGF_CKP9.54.87] | 2.4 | 26.1 | – | –
GCRSVNKICKQDSDCLAGCVCGSSRNCG (designed binder) [LRP6_CKP4] | – | – | – | ELISA [1]: 2.82; S/N [1]: 25.4
GCNIMLPFWGCSGDFACLAGCVCQYYQSCG (designed binder) [VEGF_CKP9.54.64] | 2.2 | 22.4 | – | –
GCETDWYPHQIDCKQDSDCLAGCVCGPNGFCG (designed binder) [VEGF_CKP1] | 0.9 | 16.9 | – | –
GCNIMLPFWGCGKDFHCLAGCVCQYYQSCG (designed binder) [VEGF_CKP9.54.56] | 2.3 | 35.8 | – | –
GCRNSIKRCKQNSDCLAGCVCSVGHGCG (designed binder) [LRP6_CKP6] | – | – | – | S/N [1]: 37.4
GCRDLTINWALFCKQDSDCLAGCVCQMFNSCG (designed binder) [VEGF_CKP7.73] | 1.2 | 19.2 | – | –
GCWDPTFNWALYCKQDSDCLAGCVCQMYDSCG (designed binder) [VEGF_CKP7.24] | 0.8 | 13.4 | – | –
GCLDRTLNWALYCKQDSDCLAGCVCQMYNSCG (designed binder) [VEGF_CKP7.54] | 0.5 | 9.3 | – | –
GCVTPWKPHWINCKQDSDCLAGCVCGPNGFCG (designed binder) [VEGF_CKP13] | 3.5 | 56.3 | – | –
GCKNPLFNWALYCKQDSDCLAGCVCQLFDSCG (designed binder) [VEGF_CKP7.8] | 0.5 | 7.5 | – | –
GCKDTTFNWGLFCKQDSDCLAGCVCQLYQSCG (designed binder) [VEGF_CKP7.78] | 0.7 | 11.8 | – | –
GCASSNSIRQGWCKQDSDCLAGCVCGPKSNCG (designed binder) [LRP6_CKP10] | – | – | – | ELISA [1]: 3.29; S/N [1]: 37.4
GCNIMLPFWGCGKELNCLAGCVCQYYQSCG (designed binder) [VEGF_CKP9.54.69] | 2.5 | 21.7 | – | –
GCLDPSFDWALYCKQDSDCLAGCVCQLYNSCG (designed binder) [LRP6_CKP7.89] | 0.5 | 8.1 | – | –
